Fewer inactive variants are shown than the library holds.
Legend:
biotinyl-Leu-oxazolone = experiment: self-aminoacylation, catalytic enhancement (BLO) (fold over background); higher = more active; k-Seq, kA / k0A0; sequences stand for … in GGGAAUGGAUCCACAUCUACGAAUUC…UUCACUGCAGACUUGACGAAGCUG
Summary of the method: (§1)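 Working in 50 μL HEPES/NaCl/KCl/MgCl2/CaCl2 buffer with 5% acetonitrile at pH 6.9–7.0, mutagenized RNA pools (0.43 μM; 21-nt variable region) were reacted with 2–1250 μM of each biotinyl-aminoacyl-oxazolone for 90 minutes at room temperature. Streptavidin capture followed, with quantification by triplicate qPCR and Illumina sequencing. Catalytic enhancement is reported as median kA over the uncatalyzed rate, the low-activity peak of a bimodal Gaussian fit to the data.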

biotinyl-Val-oxazolone = experiment: self-aminoacylation, catalytic enhancement (BVO) (fold over background); higher = more active; k-Seq, kA / k0A0; sequences stand for … in GGGAAUGGAUCCACAUCUACGAAUUC…UUCACUGCAGACUUGACGAAGCUG
Summary of the method: as §1

biotinyl-Phe-oxazolone = experiment: self-aminoacylation, catalytic enhancement (BFO) (fold over background); higher = more active; k-Seq, kA / k0A0; sequences stand for … in GGGAAUGGAUCCACAUCUACGAAUUC…UUCACUGCAGACUUGACGAAGCUG
Summary of the method: as §1

biotinyl-Met-oxazolone = experiment: self-aminoacylation, catalytic enhancement (BMO) (fold over background); higher = more active; k-Seq, kA / k0A0; sequences stand for … in GGGAAUGGAUCCACAUCUACGAAUUC…UUCACUGCAGACUUGACGAAGCUG
Summary of the method: as §1

biotinyl-Trp-oxazolone = experiment: self-aminoacylation, catalytic enhancement (BWO) (fold over background); higher = more active; k-Seq, kA / k0A0; sequences stand for … in GGGAAUGGAUCCACAUCUACGAAUUC…UUCACUGCAGACUUGACGAAGCUG
Summary of the method: as §1

biotinyl-Ile-oxazolone = experiment: self-aminoacylation, catalytic enhancement (BIO) (fold over background); higher = more active; k-Seq, kA / k0A0; sequences stand for … in GGGAAUGGAUCCACAUCUACGAAUUC…UUCACUGCAGACUUGACGAAGCUG
Summary of the method: as §1

Sequence | self-aminoacylation (biotinyl-Leu-oxazolone) | self-aminoacylation (biotinyl-Val-oxazolone) | self-aminoacylation (biotinyl-Phe-oxazolone) | self-aminoacylation (biotinyl-Met-oxazolone) | self-aminoacylation (biotinyl-Trp-oxazolone) | self-aminoacylation (biotinyl-Ile-oxazolone)
UUACUUCAAACAAUCGGUUUG [Fam1A.1 aminoacylation ribozyme variant] | 1.86 | 1.24 | 31.5 | 1.48 | 20.3 | 1.59
UUACUUCAAAGAAUCGGUCUG [Fam1A.1 aminoacylation ribozyme variant] | 1.57 | 1.08 | 2.71 | 1.24 | 2.03 | 1.34
UUACUUGAAACAAUCGGUCUG [Fam1A.1 aminoacylation ribozyme variant] | 1.11 | 1.03 | 1.52 | 1.32 | 0.889 | 1.15
UUCCUUCAAACAAUCGGUCUG [Fam1A.1 aminoacylation ribozyme variant] | 0.937 | 0.647 | 5.13 | 0.806 | 4.06 | 0.784
UUGUUUGCUAAUAGUCGCAAG [Fam3.1 aminoacylation ribozyme variant] | 1.24 | 1.42 | 9.39 | 1.33 | 3.52 | 1.41
UUUACCCUGAUCAUCGAGUGA [Fam2.1 aminoacylation ribozyme variant] | 7.11 | 4.05 | 23.3 | 8.08 | 9.79 | 3.92
UUUACCCUGCUCAUCGAGUGA [Fam2.1 aminoacylation ribozyme variant] | 2.15 | 1.54 | 8.11 | 2.03 | 3.13 | 1.28
UUUACCCUGGUCAGCGAGUGA [Fam2.1 aminoacylation ribozyme variant] | 5.43 | 2.96 | 16.3 | 5.62 | 7.06 | 3.46
UUUACCCUGGUCAUAGAGUGA [Fam2.1 aminoacylation ribozyme variant] | 5.87 | 3.07 | 27.7 | 5.18 | 7.54 | 2.89
UUUACCCUGGUCAUCGAGUAA [Fam2.1 aminoacylation ribozyme variant] | 11.7 | 5.3 | 30.5 | 13.9 | 11.8 | 4.45
UUUACCCUGGUCAUCGAGUGA [Fam2.1 aminoacylation ribozyme variant] | 60.9 | 27 | 428 | 68.9 | 71.3 | 24.6
UUUACCCUGGUCAUCGGGUGA [Fam2.1 aminoacylation ribozyme variant] | 37.2 | 16.7 | 221 | 37.3 | 40.3 | 15.2
UUUACCCUGGUGAUCGAGUGA [Fam2.1 aminoacylation ribozyme variant] | 6.55 | 3.51 | 28.6 | 6.47 | 7.87 | 3.39
UUUAGCCUGGUCAUCGAGUGA [Fam2.1 aminoacylation ribozyme variant] | 5.82 | 4.28 | 21.9 | 5.59 | 7 | 4.42
UUUAUCCUGGUCAUCGAGUGA [Fam2.1 aminoacylation ribozyme variant] | 9.68 | 4.7 | 10.2 | 8.6 | 11.3 | 5.25
UUUCAACUAGGUCAUCGGGUG [Fam2.2 aminoacylation ribozyme variant] | 5.6 | 3.67 | 35.7 | 5.1 | 5.22 | 3.58
UUUCACCUAAGUCAUCGGGUG [Fam2.2 aminoacylation ribozyme variant] | 9.35 | 5.74 | 51.6 | 7.38 | 8.11 | 5.08
UUUCACCUAGGUCAGCGGGUG [Fam2.2 aminoacylation ribozyme variant] | 5.53 | 3.92 | 24.2 | 4.92 | 5.12 | 3.75
UUUCACCUAGGUCAUAGGGUG [Fam2.2 aminoacylation ribozyme variant] | 1.38 | 1.3 | 1.69 | 1.28 | 1.23 | 1.41
UUUCACCUAGGUCAUCGCGUG [Fam2.2 aminoacylation ribozyme variant] | 11.4 | 6.67 | 84 | 9.16 | 9.42 | 6.66
UUUCACCUAGGUCAUCGGAUG [Fam2.2 aminoacylation ribozyme variant] | 0.998 | 1.36 | 0.842 | 0.898 | 1.12 | 1.1
UUUCACCUAGGUCAUGGGGUG [Fam2.2 aminoacylation ribozyme variant] | 4.07 | 2.96 | 29.1 | 3.8 | 4.25 | 3.19
UUUCACCUAUGUCAUCGGGUG [Fam2.2 aminoacylation ribozyme variant] | 5.1 | 3.56 | 31.4 | 4.6 | 5.28 | 3.35

Source: the supplement of paper PMC9233669
